Tests used:
[1] = target: Selenomethionine-labelled PmScsC (Proteus mirabilis); assay: crystal structure; compact structure: selenomethionine-labelled PmScsC, 2.85 M sodium malonate pH 5.8 with 0.1 M cobalt(II) chloride, 20 °C; 24 copies (8 trimers) in the asymmetric unit
[2] = target: Proteus mirabilis ScsC (PmScsC), wild type, lacking the predicted secretion signal (Proteus mirabilis); assay: crystal structure; transitional structure: oxidized PmScsC, 2.85 M sodium malonate pH 5.8 with 0.1 M copper(II) chloride, 20 °C; 6 molecules (two trimers) in the asymmetric unit
[3] = target: Proteus mirabilis ScsC (PmScsC), wild type, lacking the predicted secretion signal (Proteus mirabilis); assay: crystal structure; extended structure: oxidized PmScsC with 2.5 mM copper(II) chloride, 32% Jeffamine M-600 pH 7, 0.1 M HEPES pH 8, 20 °C; one molecule in the asymmetric unit, trimer generated by crystal symmetry
[4] = target: Proteus mirabilis ScsC (PmScsC), wild type, lacking the predicted secretion signal (Proteus mirabilis); assay: SAXS; reduced PmScsC in 25 mM HEPES pH 7.5, 150 mM NaCl, 1 mM DTT; Australian Synchrotron SAXS-WAXS beamline; also pH 6.0-8.0 and 150-1,500 mM NaCl
[5] = target: Proteus mirabilis ScsC (PmScsC), wild type, lacking the predicted secretion signal (Proteus mirabilis); assay: cross-linking; 150 μM purified PmScsC in 50 mM HEPES pH 8.5 with 3 mM DTSSP, 30 s–30 min, 23 °C; non-reducing SDS-PAGE, Coomassie; 50 mM DTT as control cleaves the cross-links
[6] = target: Proteus mirabilis ScsC (PmScsC), wild type, lacking the predicted secretion signal (Proteus mirabilis); assay: SEC-MALS; Superdex 200 or Superdex 75 10/300 GL, 25 mM Tris, 150 mM NaCl, pH 7.5; 500 μl of 3 mg ml^-1 injected, 1.0 ml min^-1

Measured: stoichiometry N

Selenomethionine-labelled PmScsC (enzyme)
3: [1]

Proteus mirabilis ScsC (PmScsC), wild type, lacking the predicted secretion signal (enzyme)
not listed: [1]
3: all other assays above
